Patent publication US20080286284A1 (published 2008)
Values joined by “and” are separate entries in the source; they are usually repeats but may differ in a detail not shown here. Equal values may be shown once.

Experiments:
[1] = target: T1, prostate specific membrane antigen (PSMA), full-length human (human, UniProt Q04609 1-750); assay: FACS, 3T3-PSMA cells
T1 construct: also called cell-surface PSMA; full-length PSMA
Description: Control anti-human IgG (Caltag, Burlingame, Calif.) was used to establish background binding. After two washes in PBS, the cells were incubated with anti-human IgG (BD Pharmingen, San Diego, Calif.) for 30 minutes on ice. Cells were washed twice in PBS, resuspended in 250 μl PBS and analyzed by flow cytometry using a FACScan machine (Becton Dickinson, Franklin Lakes, N.J.) and CellQuest software. Viable cells were gated by forward scatter and side scatter parameters, and binding was quantified using histogram plots of mean fluorescence intensity (MFI) levels.

[2] = target: T2, recombinant soluble PSMA (rsPSMA) (human, UniProt Q04609 44-750); assay: Biacore, rsPSMA
T2 construct: also called rsPSMA dimer; secreted rsPSMA
T2 sequence (Q04609 44-750): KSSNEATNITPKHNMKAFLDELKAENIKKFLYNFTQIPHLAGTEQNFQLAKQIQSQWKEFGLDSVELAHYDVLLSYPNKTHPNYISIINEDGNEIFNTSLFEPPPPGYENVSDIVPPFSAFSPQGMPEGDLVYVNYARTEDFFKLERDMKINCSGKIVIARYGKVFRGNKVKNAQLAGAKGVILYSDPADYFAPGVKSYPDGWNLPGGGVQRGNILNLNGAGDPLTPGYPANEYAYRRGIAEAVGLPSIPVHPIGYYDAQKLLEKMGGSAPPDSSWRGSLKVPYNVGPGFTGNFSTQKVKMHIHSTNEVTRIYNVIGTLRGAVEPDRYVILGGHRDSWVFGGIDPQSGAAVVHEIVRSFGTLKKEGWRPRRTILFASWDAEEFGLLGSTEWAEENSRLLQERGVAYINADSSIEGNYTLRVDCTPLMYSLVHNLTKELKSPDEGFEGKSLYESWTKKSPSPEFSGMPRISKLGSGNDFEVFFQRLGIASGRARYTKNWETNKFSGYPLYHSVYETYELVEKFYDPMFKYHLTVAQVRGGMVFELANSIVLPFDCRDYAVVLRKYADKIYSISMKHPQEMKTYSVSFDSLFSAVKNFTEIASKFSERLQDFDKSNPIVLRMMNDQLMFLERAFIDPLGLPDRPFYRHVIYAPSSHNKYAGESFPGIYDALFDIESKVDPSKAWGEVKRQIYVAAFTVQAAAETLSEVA
Description: (§1) The streptavidin-coated sensor chips (SA chips, Biacore) were used to capture biotinylated anti-human IgG antibody (Sigma, St. Louis, Mo.). The entire sensor chip surface was conditioned with five injections of conditioning solution (1 M NaCl, 50 mM NaOH) and equilibrated with PBS buffer containing 0.005% polysorbate 20. Two to three thousand resonance units (RU) of biotinylated anti-human IgG antibody (Sigma) were immobilized onto the SA chip followed by an injection of regeneration buffer (glycine-HCl, pH 2.2). […] For each antibody at one concentration, the chip was regenerated and equilibrated. […] Thermodynamic and kinetic rate constants of binding were calculated using the Biacore Evaluation software.

[3] = target: T1, prostate specific membrane antigen …; assay: FACS, C4-2 cells
[4] = target: T2, recombinant soluble PSMA (rsPSMA); assay: cell-based or functional assay
[5] = target: T2, recombinant soluble PSMA (rsPSMA); assay: Biacore, captured mAb, rsPSMA in flow
Description: (§2) To determine the kinetics and affinity of the antibodies, the antibodies in crude supernatants, in purified form and in bifunctional chelate modified forms were analyzed using a Biacore 3000 instrument (Biacore Inc., Piscataway, N.J.). Biacore 3000 is a fully automated surface plasmon resonance (SPR)-based biosensor system that is designed to provide real-time kinetic data from assay formats that require no tags or labeling of compounds for biomolecular interactions. It is ideal for screening crude supernatants.
as §1

[6] = target: T1, prostate specific membrane antigen …; assay: lysate EIA, supernatant
[7] = target: T1, prostate specific membrane antigen …; assay: FACS, supernatant
[8] = target: T2, recombinant soluble PSMA (rsPSMA); assay: Biacore; Avg KD of purified 006
Description: as §2, §1

[9] = target: T2, recombinant soluble PSMA (rsPSMA); assay: Biacore; Avg KD
Description: as §2, §1

[10] = target: T1, prostate specific membrane antigen …; assay: cell-based or functional assay
[11] = target: T2, recombinant soluble PSMA (rsPSMA); assay: Biacore; Avg KD of purified 10.3
Description: as §2, §1

T1 sequence (Q04609 whole entry): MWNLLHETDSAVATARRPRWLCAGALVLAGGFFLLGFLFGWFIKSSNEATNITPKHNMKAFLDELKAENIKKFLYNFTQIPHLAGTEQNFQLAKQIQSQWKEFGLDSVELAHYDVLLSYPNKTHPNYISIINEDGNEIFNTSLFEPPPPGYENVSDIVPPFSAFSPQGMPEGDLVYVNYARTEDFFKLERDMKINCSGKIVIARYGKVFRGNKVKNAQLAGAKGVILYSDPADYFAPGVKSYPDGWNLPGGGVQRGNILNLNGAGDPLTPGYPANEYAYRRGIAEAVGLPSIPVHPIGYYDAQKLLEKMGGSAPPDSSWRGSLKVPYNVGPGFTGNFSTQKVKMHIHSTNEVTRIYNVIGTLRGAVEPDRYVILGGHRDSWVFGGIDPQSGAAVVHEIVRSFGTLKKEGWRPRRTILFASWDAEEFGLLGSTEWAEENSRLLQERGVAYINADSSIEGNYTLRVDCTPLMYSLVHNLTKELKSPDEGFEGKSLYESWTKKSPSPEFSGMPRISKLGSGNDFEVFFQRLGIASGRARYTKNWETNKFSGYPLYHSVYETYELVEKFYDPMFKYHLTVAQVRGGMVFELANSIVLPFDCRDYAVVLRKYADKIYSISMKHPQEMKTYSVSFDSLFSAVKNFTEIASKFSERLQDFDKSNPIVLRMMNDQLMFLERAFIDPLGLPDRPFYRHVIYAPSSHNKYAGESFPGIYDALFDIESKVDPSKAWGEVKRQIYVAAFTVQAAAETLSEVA

| Binder | AVG Max binding [1] | C4.2 FACS [3] | Lysate EIA [6] | PGNX FACS [7] | Kd [2] [nM] | koff [2] [s⁻¹] | kon [2] [M⁻¹ s⁻¹] | other results |
| --- | --- | --- | --- | --- | --- | --- | --- | --- |
| AB-PG1-XG1-069 (antibody, V domains shown, also called PRGX1-XG1-069) VH: EVQLVQSGAEVKKPGESLKISCKGSGYSFTSYWIGWVRQMPGKGLEWMGIIYPGDSDTRYSPSFQGQVTISADKSISTAYLQWSSLKASDTAMYYCARRMAAAGPFDYWGQGTLVTVSS VL: GIVMTQSPATLSVSPGERATLSCRTSQSIGWNLAWYQQKPGQAPRLLIYGASSRTTGIPARFSGSGSGTEFTLTISSLQSEDSAVYYCQHYDNWPMCSFGQGTELEIK | 71 | – | – | – | – | – | – | binding result [2]: no binding |
| AB-PG1-XG1-006 (antibody, V domains shown, also called XG-006; PRGX1-XG1-006) VH: QVQLVESGGGVVQPGRSLRLSCAASGFAFSRYGMHWVRQAPGKGLEWVAVIWYDGSNKYYADSVKGRFTISRDNSKNTQYLQMNSLRAEDTAVYYCARGGDFLYYYYYGMDVWGQGTTVTVSS VL: DIQMTQSPSSLSASVGDRVTITCRASQGISNYLAWYQQKTGKVPKFLIYEASTLQSGVPSRFSGGGSGTDFTLTISSLQPEDVATYYCQNYNSAPFTFGPGTKVDIK | 183 | 9.5 | 0.39 | 114 | 0.48 | 6.4e-05 | 130000 | IC50, folate hydrolase activity [4]: 9.34 µg/mL; Kd [5]: 0.466 nM and 0.562 nM and 0.492 nM; koff [5]: 0.000137 s⁻¹ and 0.000127 s⁻¹ and 6.4e-05 s⁻¹; kon [5]: 294000 M⁻¹ s⁻¹ and 226000 M⁻¹ s⁻¹ and 130000 M⁻¹ s⁻¹; Kd [8]: 0.514 nM; Kd [9]: 0.492 nM |
| AB-PG1-XG1-077 (antibody, V domains shown, also called PRGX1-XG1-077) VH: QVQLVESGGGVVQPGRSLRLSCAASGFTFISYGMHWVRQAPGKGLEWVAVISYDGSNKYYADSVKGRFTISRDNSKNTLYLQMNSLRAEDTAVYYCARVLVGALYYYNYYGMDVWGQGTTVTVSS VL: DIVMTQTPLSLSVTPGQPASISCKSSQSLLHSDGKTFLYWYLQKPGQPPQLLIYEVSNRFSGVPDRFSGSGSGTDFTLKISRVEAEDVGLYYCMQSIQLPLTFGGGTKVEIK | 227 | 12.4 | 0.45 | 392 | 1.6 | 0.000104 | 60000 | – |
| ^225Ac labeled mAb 026 (antibody, V domains shown) VH: QVQLVESGGGVVQPGRSLRLSCAASGFTFSNYVMHWVRQAPGKGLEWVAIIWYDGSNKYYADSVKGRFTISRDNSKNTLYLQMNSLRAEDTAVYYCAGGYNWNYEYHYYGMDVWGQGTTVTVSS VL: DIQMTQSPSSLSASVGDRVTITCRASQGITNYLAWFQQKPGKAPKSLIYAASSLQSGVPSKFSGSGSGTDFSLTISSLQPEDFATYYCQQYNSYPITFGQGTRLEIK | – | – | – | – | – | – | – | IC50, ^3H thymidine incorporation, C4-2 cells [10]: 0.12 nCi/mL; IC50, cytotoxicity on C4-2 and LNCaP cells [10]: < 1 nCi/mL; selectivity of killing vs. control antibody (HuIgG) [10]: > 50 fold; selectivity of killing vs. control mAb (HuM195) [10]: > 100 fold; selectivity of killing, C4-2 vs. PC3 [10]: > 50 fold |
| AB-PG1-XG1-026 (antibody, V domains shown, also called XG-026; PRGX1-XG1-026) VH: QVQLVESGGGVVQPGRSLRLSCAASGFTFSNYVMHWVRQAPGKGLEWVAIIWYDGSNKYYADSVKGRFTISRDNSKNTLYLQMNSLRAEDTAVYYCAGGYNWNYEYHYYGMDVWGQGTTVTVSS VL: DIQMTQSPSSLSASVGDRVTITCRASQGITNYLAWFQQKPGKAPKSLIYAASSLQSGVPSKFSGSGSGTDFSLTISSLQPEDFATYYCQQYNSYPITFGQGTRLEIK | 148 | – | – | – | 0.2 | 2.9e-05 | 150000 | IC50, folate hydrolase activity [4]: 1.39 µg/mL |
| AB-PG1-XG1-051 (antibody, V domains shown, also called XG-051; PRGX1-XG1-051) VH: QVQLVESGGGVVQPGRSLRLSCAASGFTFSSYGMHWVRQAPGKGLDWVAIIWHDGSNKYYADSVKGRFTISRDNSKKTLYLQMNSLRAEDTAVYYCARAWAYDYGDYEYYFGMDVWGQGTTVTVSS VL: DIQMTQSPSSLSASVGDRVTITCRASQGISHYLAWFQQKPGKAPKSLIYAASSLQSGVPSKFSGSGSGTDFTLTISSLQPEDFATYYCQQYNSFPLTFGGGTKVEIK | 202 | 9.9 | 0.48 | 83 | 0.58 | 8.2e-05 | 140000 | – |
| PSMA 10.3 (antibody, V domains shown) VH: QEQLVESGGGVVQPGRSLRLSCAASGFTFSTYGMHWVRQAPGKGLEWVAVTWHDGSNKYYADSVKGRFTISRDNSKNTLYLQMNSLRAEDTAVYYCARGGVGATYYYYYGMDVWGQGTTVTVSS VL: not shown | 181 | – | 1.06 | – | 1.9 | 0.000364 | 190000 | Kd [11]: 0.205 nM; kon [5]: 190000 M⁻¹ s⁻¹ and 328000 M⁻¹ s⁻¹ and 296000 M⁻¹ s⁻¹; Kd [9]: 1.91 nM |
